In article PMC5735301 (Oncogene, 2017):
“And” between values parts separate entries of the source, which are not always exact repeats. Identical values can stand only once.

Target: the molecule itself

B1: RXRα (protein of Supplementary Figure S1f; tetramer and dimer) (natural protein)
chain: MDTKHFLPLDFSTQVNSSLTSPTGRGSMAAPSLHPSLGPGIGSPGQLHSPISTLSSPINGMGPPFSVISSPMGPHSMSVPTTPTLGFSTGSPQLSSPMNPVSSSEDIKPPLGLNGVLKVPAHPSGNMASFTKHICAICGDRSSGKHYGVYSCEGCKGFFKRTVRKDLTYTCRDNKDCLIDKRQRNRCQYCRYQKCLAMGMKREAVQEERQRGKDRNENEVESTSSANEDMPVERILEAELAVEPKTETYVEANMGLNPSSPNDPVTNICQAADKQLFTLVEWAKRIPHFSELPLDDQVILLRAGWNELLIASFSHRSIAVKDGILLATGLHVHRNSAHSAGVGAIFDRVLTELVSKMRDMQMDKTELGCLRAIVLFNPDSKGLSNPAEVEALREKVYASLEAYCKHKYPEQPGRFAKLLLRLPALRSIGLKCLEHLFFFKLIGDTPIDTFLMEMLEAPHQMT
- stoichiometry N: 4 and 2
